According to paper PMC3581488:
Substitutions are numbered along the chain they refer to. Names may count otherwise. Each block holds one molecule with its values, some of them ahead of it.

Assays:
Assay in all cases: GST fusion protein pulldown assay, quantified immunoblot (α-tubulin)
Purified bovine tubulin = Purified bovine tubulin (UniProt Q6B856); settings: parent: est. 100, read off a plot
[1] = molecular target: T1, Purified bovine tubulin, Q6B856; settings: chain shown with the change
T1 chain: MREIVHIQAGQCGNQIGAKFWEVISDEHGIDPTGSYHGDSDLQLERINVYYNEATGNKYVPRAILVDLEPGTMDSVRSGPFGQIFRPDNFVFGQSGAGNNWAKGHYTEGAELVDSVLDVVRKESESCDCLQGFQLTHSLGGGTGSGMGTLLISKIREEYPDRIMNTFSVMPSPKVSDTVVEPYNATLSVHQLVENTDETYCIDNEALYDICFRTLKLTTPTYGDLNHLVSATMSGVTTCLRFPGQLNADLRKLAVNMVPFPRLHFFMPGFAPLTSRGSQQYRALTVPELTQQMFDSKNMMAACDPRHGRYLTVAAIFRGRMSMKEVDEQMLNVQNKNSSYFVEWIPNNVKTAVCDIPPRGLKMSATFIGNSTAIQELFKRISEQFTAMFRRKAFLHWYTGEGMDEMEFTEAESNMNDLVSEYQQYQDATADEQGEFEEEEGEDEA

[2] = molecular target: Tubulin from rat brain extracts, P68370;Q3KRE8; settings: chain shown with the change; rat brain cytosolic extracts; parent: est. 100; read off a plot
[3] = parent: est. 100, read off a plot

- percent of parent (Purified bovine tubulin): 52 % of AT1R CT
Molecule: GST fusion protein encoding the C-terminus (CT) of the angiotensin II type 1 receptor (AT1R) K311E

- percent of parent (Purified bovine tubulin): 20 % of AT1R CT
Molecule: GST fusion protein encoding the C-terminus (CT) of the angiotensin II type 1 receptor (AT1R) K310E

- percent of parent [1, 3]: 83 % of AT1R CT
B1: GST fusion protein encoding the C-terminus (CT) of the angiotensin II type 1 receptor (AT1R) K307E (protein)
chain: LGEKFKKYFLQLLKYIPPKAKSHSSLSTKMSTLSYRPSDNMSSSAKKPASCFEVE

- percent of parent [1, 3]: 100 % of AT1R CT
B2: GST fusion protein encoding the C-terminus (CT) of the angiotensin II type 1 receptor (AT1R) K308E (protein)
chain: B1 chain with E3K, K4E

- percent of parent [2]: 12 % of AT1R CT
- percent of parent [1, 3]: 5 % of AT1R CT
- percent of parent ([1]; purified tubulin, parent: est. 100, read off a plot): 4 % of AT1R CT
B3: GST fusion protein encoding the C-terminus (CT) of the angiotensin II type 1 receptor (AT1R) K307E; K308E; K310E; K311E (protein)
chain: B1 chain with K4E, K6E, K7E
